Earlier results, collected in paper PMC5135002.

Target: CYLD USP (Homo sapiens) (UniProt Q9NQC7)
Chain of UniProt Q9NQC7 (Q9NQC7 589-953): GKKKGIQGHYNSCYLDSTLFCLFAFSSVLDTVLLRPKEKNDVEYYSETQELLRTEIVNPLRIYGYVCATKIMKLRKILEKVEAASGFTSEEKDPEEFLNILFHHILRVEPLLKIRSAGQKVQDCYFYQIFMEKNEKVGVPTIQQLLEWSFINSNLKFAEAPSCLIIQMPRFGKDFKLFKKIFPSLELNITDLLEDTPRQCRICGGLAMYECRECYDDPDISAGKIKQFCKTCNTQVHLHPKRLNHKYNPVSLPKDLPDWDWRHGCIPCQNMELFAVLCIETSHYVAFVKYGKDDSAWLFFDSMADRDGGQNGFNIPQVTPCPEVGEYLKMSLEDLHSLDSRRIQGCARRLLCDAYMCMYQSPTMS

For SPATA2 PUB (from UniProt Q9UM82), which Kd is on record?
The Kd was 10 nM.
